Results published in article doi:10.1101/2020.01.09.899237.

Molecular target: DnaJB8ΔCTD (human)
Experiment: cross-linking

Sequence of HspA1A (human Hsp70) (P0DMV8 whole entry): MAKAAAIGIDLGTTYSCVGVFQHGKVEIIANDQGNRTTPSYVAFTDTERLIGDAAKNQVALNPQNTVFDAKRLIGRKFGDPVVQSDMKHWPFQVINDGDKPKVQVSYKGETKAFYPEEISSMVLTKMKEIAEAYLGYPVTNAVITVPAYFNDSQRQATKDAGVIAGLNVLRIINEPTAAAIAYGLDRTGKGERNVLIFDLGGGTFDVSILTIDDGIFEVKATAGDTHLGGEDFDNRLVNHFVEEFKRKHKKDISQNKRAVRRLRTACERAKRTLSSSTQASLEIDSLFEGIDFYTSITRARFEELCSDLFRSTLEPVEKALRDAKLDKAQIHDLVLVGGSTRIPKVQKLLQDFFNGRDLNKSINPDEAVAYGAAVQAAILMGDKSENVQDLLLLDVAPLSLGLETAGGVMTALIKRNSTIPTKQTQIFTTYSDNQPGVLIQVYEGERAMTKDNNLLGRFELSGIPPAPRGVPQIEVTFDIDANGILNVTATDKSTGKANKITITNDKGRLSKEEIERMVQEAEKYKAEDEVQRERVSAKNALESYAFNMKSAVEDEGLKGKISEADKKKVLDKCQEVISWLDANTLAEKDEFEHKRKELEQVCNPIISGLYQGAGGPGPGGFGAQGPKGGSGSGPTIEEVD

total crosslinks between the JD and HspA1A across three XL-MS experiments: 14 crosslinks
Substance: HspA1A (human Hsp70) (from UniProt P0DMV8 1-641) (natural protein)
